{"source": "paper PMC6254361", "about": "“The properties of Msh2–Msh6 ATP binding mutants suggest a signal amplification mechanism in DNA mismatch repair” (The Journal of Biological Chemistry, 2018)", "key": {"[1]": {"target": "Walker A Lys mutant Msh2–Msh6 complexes (S. cerevisiae)", "experiment": "SPR; Biacore T100; 236-bp GT mispair DNA held by biotin-streptavidin, other end blocked by lacO-LacI; 20 nM Msh2–Msh6, 250 μM ATP, 30 nM LacI for 100 s, then the same plus 40 nM Mlh1–Pms1 for 300 s; recruitment read as the increase in RU over steady-state Msh2–Msh6; 25 mM Tris pH 8, 4 mM MgCl2, 110 mM NaCl, 0.01% Igepal, 2 mM DTT, 2% glycerol; 10 °C, 20 μl/min", "details": "scale: Mlh1–Pms1 complexes bound per Msh2–Msh6 complex"}, "[2]": {"target": "S. cerevisiae Mlh1–Pms1 [S. cerevisiae]", "experiment": "SPR", "details": "GT mispair-containing double end-blocked DNA surface; buffer with ATP and LacI; read off a plot"}, "[3]": {"tested_on": "Msh2;Msh6 (Saccharomyces cerevisiae;Saccharomyces cerevisiae)", "experiment": "SPR", "details": "SPR on streptavidin surface; buffer, salt, pH and temperature not given in the material; with or without 0.1-2.5 mM ATP; LacI end block, released by 1 mM IPTG"}, "[4]": {"tested_on": "Msh2(K694A);Msh6 (Saccharomyces cerevisiae;Saccharomyces cerevisiae)", "experiment": "SPR", "details": "ATP up to 2.5 mM, LacI; SPR on streptavidin surface; buffer, salt, pH and temperature not given in the material; with or without 0.1-2.5 mM ATP; LacI end block, released by 1 mM IPTG"}, "[5]": {"tested_on": "Msh2(K694R);Msh6 (Saccharomyces cerevisiae;Saccharomyces cerevisiae)", "experiment": "SPR", "details": "ATP up to 2.5 mM, LacI; SPR on streptavidin surface; buffer, salt, pH and temperature not given in the material; with or without 0.1-2.5 mM ATP; LacI end block, released by 1 mM IPTG"}, "[6]": {"tested_on": "Msh2;Msh6(G1142D) (Saccharomyces cerevisiae;Saccharomyces cerevisiae)", "experiment": "SPR", "details": "0.1 and 2.5 mM ATP, LacI; printed as no more than 0.86; SPR on streptavidin surface; buffer, salt, pH and temperature not given in the material; with or without 0.1-2.5 mM ATP; LacI end block, released by 1 mM IPTG"}, "[7]": {"tested_on": "Msh2;Msh6;Mlh1;Pms1 (Saccharomyces cerevisiae;Saccharomyces cerevisiae;Saccharomyces cerevisiae;Saccharomyces cerevisiae)", "experiment": "SPR", "details": "ATP, LacI; SPR on streptavidin surface; buffer, salt, pH and temperature not given in the material; with or without 0.1-2.5 mM ATP; LacI end block, released by 1 mM IPTG"}, "[8]": {"tested_on": "Msh2(K694M);Msh6 (Saccharomyces cerevisiae;Saccharomyces cerevisiae)", "experiment": "SPR", "details": "ATP up to 2.5 mM, LacI; SPR on streptavidin surface; buffer, salt, pH and temperature not given in the material; with or without 0.1-2.5 mM ATP; LacI end block, released by 1 mM IPTG"}}}
{"substance": "S. cerevisiae Mlh1–Pms1 (from UniProt P38920 1-769; P14242 1-873) (complex)", "values": [{"measurement": "stoichiometry N", "setting": "[1]", "value": "2.06 to 3.75"}]}
{"substance": "S. cerevisiae Msh2–Msh6 (WT) mutant Msh2:K694R [S. cerevisiae] / S. cerevisiae Mlh1–Pms1 [S. cerevisiae] chain 3 K694R", "values": [{"measurement": "screen value", "setting": "[2]", "value": 4.3}]}
{"substance": "236-bp +T mispair DNA", "values": [{"measurement": "binding signal (% of WT RUmax)", "setting": "[3]", "value": 100}]}
{"substance": "S. cerevisiae Msh2–Msh6 (WT) mutant Msh2:K694A [S. cerevisiae] / S. cerevisiae Mlh1–Pms1 [S. cerevisiae] chain 3 K694A", "values": [{"measurement": "screen value", "setting": "[2]", "value": 3.5}]}
{"substance": "236-bp mispaired DNA, double end-blocked", "values": [{"measurement": "binding signal (Msh2-Msh6 per DNA (maximum))", "setting": "[4]", "value": 1}, {"measurement": "binding signal (Msh2-Msh6 per DNA (maximum))", "setting": "[5]", "value": 1}, {"measurement": "binding signal (Msh2-Msh6 per DNA)", "setting": "[6]", "value": "< 0.86"}, {"measurement": "binding signal (Mlh1-Pms1 per Msh2-Msh6)", "setting": "[7]", "value": 1.07}, {"measurement": "binding signal (Msh2-Msh6 per DNA (maximum))", "setting": "[8]", "value": 1}]}
{"substance": "S. cerevisiae Msh2–Msh6 (WT) mutant Msh2:K694M [S. cerevisiae] / S. cerevisiae Mlh1–Pms1 [S. cerevisiae] chain 3 K694M", "values": [{"measurement": "screen value", "setting": "[2]", "value": 4.9}]}
{"substance": "S. cerevisiae Msh2–Msh6 (WT) mutant Msh6:K988A [S. cerevisiae] / S. cerevisiae Mlh1–Pms1 [S. cerevisiae] chain 4 K988A", "values": [{"measurement": "screen value", "setting": "[2]", "value": 3.3}]}
{"substance": "S. cerevisiae Msh2–Msh6 (WT) mutant Msh6:K988R [S. cerevisiae] / S. cerevisiae Mlh1–Pms1 [S. cerevisiae] chain 4 K988R", "values": [{"measurement": "screen value", "setting": "[2]", "value": 2.4}]}
{"substance": "S. cerevisiae Msh2–Msh6 (WT) mutant Msh6:K988M [S. cerevisiae] / S. cerevisiae Mlh1–Pms1 [S. cerevisiae] chain 4 K988M", "values": [{"measurement": "screen value", "setting": "[2]", "value": 3.4}]}
